Source: patent US20240316099A1

Biological target: NKG2D ligands
Experiment: cell-based or functional assay

B1: chimeric NKG2D receptor (NKG2D.ζ), expressed on primary human NK cells (receptor)
chain: MRVKFSRSAEPPAYQQGQNQLYNELNLGRREEYDVLDKRRGRDPEMGGKPRRKNPQEGLYNELQKDKMAEAYSEIGMKGERRRGKGHDGLYQGLSTATKDTYDALHMQALPPRGWIRGRRSRHSWEMSEFHNYNLDLKKSDFSTRWQKQRCPVVKSKCRENASPFFFCCFIAVAMGIRFIIMVAIWSAVFLNSLFNQEVQIPLTESYCGPCPKNWICYKNNCYQFFDESKNWYESQASCMSQNASLLKVYSKEDQDLLKLVKSYHWMGLVHIPTNGSWQWEDGSILSPNLLTIIEMQKGDCALYASSFKGYIENCSTPNTYICMQRTV
With B1 as the binder, how does the cytotoxicity against autologous MDSCs, 4-hour chromium-release assay, E:T ratio of 5:1 read?
Its cytotoxicity against autologous MDSCs, 4-hour chromium-release assay, E:T ratio of 5:1 is 35%.

What about the cytotoxicity against wild-type K562 in a 4-hour cytotoxicity assay, 2:1 E:T ratio of the same binder?
Its cytotoxicity against wild-type K562 in a 4-hour cytotoxicity assay, 2:1 E:T ratio is 79.2%.

What about the lysis of autologous immature dendritic cells, E:T ratio of 20:1 of the same binder?
Its lysis of autologous immature dendritic cells, E:T ratio of 20:1 is 4.2%.
